These results are taken from paper doi:10.1101/2022.10.11.511767, “A conserved and tunable mechanism for the temperature-controlled condensation of the translation factor Ded1p” (bioRxiv, 2022).

What all share (details): both partners purified
Assay [1] addresses T1, RecA1 domain of Sc Ded1p (residues 82-369) (S. cerevisiae, UniProt P06634 82-369).
T1 construct: Ded1p (DEAD-box RNA helicase), S. cerevisiae, first RecA domain, residues 82-369; Used unlabelled (NMR invisible); also called first RecA domain; RecA1 subdomain; source: E. coli, purified (Ni-NTA, TEV cleavage, second Ni-NTA, size exclusion); not shown: His6, N-terminal, cleaved
Briefly: NMR titration; 1H-15N spectra of the isotope-labelled C-terminal IDR; unlabelled helicase core, RecA1 or RecA2 added; visible condensation in the NMR tube; 20 mM HEPES pH 7.3, 125 mM NaCl, 1 mM DTT, 5% D2O.

Assay [2] addresses T2, helicase core region of Sc Ded1p (RecA1-RecA2, residues 82-535) (S. cerevisiae, UniProt P06634 82-535).
T2 construct: Ded1p (DEAD-box RNA helicase), S. cerevisiae, helicase core region (RecA1-RecA2), residues 82-535; Used unlabelled (NMR invisible); also called Sc helicase domain (RecA1-RecA2); helicase core domain; source: E. coli, purified (Ni-NTA, TEV cleavage, second Ni-NTA, size exclusion); not shown: His6, N-terminal, cleaved
Described as above.

For assay [3], the target named is T3, RecA2 domain of Sc Ded1p (residues 369-535) (S. cerevisiae, UniProt P06634 369-535).
T3 construct: Ded1p (DEAD-box RNA helicase), S. cerevisiae, second RecA domain, residues 369-535; 15N and/or 13C isotope labelled when it was the NMR-visible partner, unlabelled when NMR invisible; also called second RecA domain; Rec2 subdomain; source: E. coli, purified (Ni-NTA, TEV cleavage, second Ni-NTA, size exclusion); not shown: His6, N-terminal, cleaved
T3 sequence (P06634 369-535): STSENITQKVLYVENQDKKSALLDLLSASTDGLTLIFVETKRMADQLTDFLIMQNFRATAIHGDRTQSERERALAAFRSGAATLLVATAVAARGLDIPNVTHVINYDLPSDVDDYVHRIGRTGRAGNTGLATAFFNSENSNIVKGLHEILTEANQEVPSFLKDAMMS
Briefly: NMR titration; 1H-15N spectra of the isotope-labelled N-terminal IDR; unlabelled helicase core, RecA1 or RecA2 added; 20 mM HEPES pH 7.3, 125 mM NaCl, 1 mM DTT, 5% D2O.

Assay [4] addresses T2, helicase core region of Sc Ded1p …. The assay is described as above.

T2 sequence (P06634 82-535): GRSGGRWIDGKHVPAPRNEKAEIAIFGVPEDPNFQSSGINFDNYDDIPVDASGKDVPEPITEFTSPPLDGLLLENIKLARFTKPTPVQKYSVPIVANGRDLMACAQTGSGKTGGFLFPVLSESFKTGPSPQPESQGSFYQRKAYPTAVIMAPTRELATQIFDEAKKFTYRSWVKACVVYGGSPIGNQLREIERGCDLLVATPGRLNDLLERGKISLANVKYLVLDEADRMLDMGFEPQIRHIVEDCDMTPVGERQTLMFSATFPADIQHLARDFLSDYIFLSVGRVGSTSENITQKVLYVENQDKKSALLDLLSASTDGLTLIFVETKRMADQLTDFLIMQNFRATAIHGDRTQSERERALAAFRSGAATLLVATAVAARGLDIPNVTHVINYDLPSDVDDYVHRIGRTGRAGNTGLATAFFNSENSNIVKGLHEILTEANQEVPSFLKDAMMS
T1 sequence (P06634 82-369): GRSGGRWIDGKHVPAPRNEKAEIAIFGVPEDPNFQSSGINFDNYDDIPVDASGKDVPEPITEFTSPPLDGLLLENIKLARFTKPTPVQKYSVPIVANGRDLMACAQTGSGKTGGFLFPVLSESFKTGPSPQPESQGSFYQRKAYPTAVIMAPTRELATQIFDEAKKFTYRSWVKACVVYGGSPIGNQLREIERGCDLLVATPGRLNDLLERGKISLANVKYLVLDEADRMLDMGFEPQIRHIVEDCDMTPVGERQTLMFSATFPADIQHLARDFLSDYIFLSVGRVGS

B1: C-terminal IDR of Sc Ded1p (residues 533-604) (domain or fragment, S. cerevisiae, UniProt P06634 533-604, looked up)
chain: MMSAPGSRSNSRRGGFGRNNNRDYRKAGGASAGGWGSSRSRDNSFRGGSGWGSDSKSSGWGNSGGSNNSSWW
notes: Ded1p (DEAD-box RNA helicase), S. cerevisiae, C-terminal intrinsically disordered region, residues 533-604; 15N isotope labelled (NMR visible) in the titrations; also called C-IDR; source: E. coli, purified (Ni-NTA, TEV cleavage, second Ni-NTA, size exclusion); not shown: His6, N-terminal, cleaved
In the case of B1, the binding result in assay [1] and in assay [2] was “binds” each time.

B2: N-terminal IDR of Sc Ded1p (residues 1-81) (domain or fragment, S. cerevisiae, UniProt P06634 1-81, looked up)
chain: MAELSEQVQNLSINDNNENGYVPPHLRGKPRSARNNSSNYNNNNGGYNGGRGGGSFFSNNRRGGYGNGGFFGGNNGGSRSN
notes: Ded1p (DEAD-box RNA helicase), S. cerevisiae, N-terminal intrinsically disordered region, residues 1-81; 15N and/or 13C isotope labelled when it was the NMR-visible partner, grown in LB (unlabelled) when NMR invisible; also called N-terminal region; N-IDR; source: E. coli, purified (Ni-NTA, TEV cleavage, second Ni-NTA, size exclusion); not shown: His6, N-terminal, cleaved
For B2, the binding result in assay [3] and in assay [4] was “binds” each time.
